Data published in patent US20240043505A1 (UNIVERSITY OF PITTSBURGH OF THE COMMONWEALTH SYSTEM OF …, published 2024).
Where “and” joins values, the source holds several entries; their conditions need not be identical. Equal values may be shown once.

What was measured:
[1] = biological target: SARS-CoV-2 Munich strain spike glycoprotein on authentic virus (SARS-CoV-2); test: cell-based or functional assay
[2] = biological target: T1, SARS-CoV-2 (Wuhan-Hu-1 strain) spike glycoprotein on pseudotyped virus particles (SARS-CoV-2, UniProt P0DTC2 14-1273); test: cell-based or functional assay
[3] = biological target: T1, SARS-CoV-2 (Wuhan-Hu-1 strain) spike …; test: cell-based or functional assay; remark: listed apart in the source
[4] = biological target: SARS-CoV-2 spike receptor-binding domain (RBD) (SARS-CoV-2, UniProt P0DTC2 319-541); test: indirect ELISA, RBD coated on plate, 4PL fit
[5] = biological target: SARS-CoV-2 spike glycoprotein on authentic virus (Munich strain) (SARS-CoV-2 (Munich strain), UniProt P0DTC2 14-1273); test: cell-based or functional assay
[6] = biological target: SARS-CoV-2 spike glycoprotein (Wuhan-Hu-1 strain) on pseudotyped virus particles (SARS-CoV-2 (Wuhan-Hu-1 strain), UniProt P0DTC2 14-1273); test: cell-based or functional assay

| Binder | Authentic virus PRNT IC50 [1] | Pseudo-neut IC50 Luciferase [2] | neutralization of SARS-CoV-2 (assay not stated) [3] | ELISA affinity [4] | Authentic virus PRNT IC50 [5] | Pseudo-neutralization IC50 (Luciferase) [6] | further results |
| --- | --- | --- | --- | --- | --- | --- | --- |
| Nb34 (VHH) VHH: DVQLVESGGGLVQAGGSLRLSCAASGFTFSNYVMYWGRQAPGKGREWVSGIDSDGSDTAYASSVKGRFTISRDNAKNTLYLQMNNLKPEDTALYYCVKSKDPYGSPWTRSEFDDYWGQGTQVTVSS | 1.12 nM | 1.99 nM | < 150 ng/mL | – | – | – | – |
| Nb89 (VHH) VHH: HVQLVESGGGLVQAGGSLRLSCAASGGTFTTFRMAWFRQTPGKEREFVAASSWGFVNYADPVKGRFTISRDNAKNTVYLEMSSLKTEDTAVYYCAARNPGTGQYDYWGQGTQVTVSS | 0.154 nM | 0.133 nM | – | – | – | – | Pseudo-neutralization (GFP) [2]: < 0.5 nM; IC50, pseudovirus assay [3]: 2 ng/ml and 0.129 nM |
| Nb36 (VHH) VHH: HVQLVESGGGLVQAGGSLTLTCAASGRTFSSETMDMGWFRQAPGKEREFVAADSWNDGSTYYADSVKGRFTISRDSAKNTLYLQMNSLKPEDTAVYYCAAETYSIYEKDDSWGYWGQGTQVTVSS | – | 1.56 nM | ≤ 100 ng/mL | – | – | – | – |
| Nb16 (VHH) VHH: DVQLVESGGGLVQAGESLRLSCAASGDMFSSNAMAWYRQAPGKQRELVASITSGGNTNYADSVKGRFTISRDNAKNTVYLQMDSLKPEDTAVYYCNGVAYDYSWGRPRNFWGQGTQVTVSS | – | – | – | 0.37 nM | 3.16 nM | 1.57 nM | – |
| Nb20 (VHH) VHH: QVQLVESGGGLVQAGGSLRLSCAVSGAGAHRVGWFRRAPGKEREFVAAIGASGGMTNYLDSVKGRFTISRDNAKNTIYLQMNSLKPQDTAVYYCAARDIETAEYIYWGQGTQVTVSS | – | – | – | – | 0.0422 nM | 0.114 nM | Pseudo-neutralization (GFP) [6]: < 0.5 nM |
| Nb21 (VHH) VHH: QVQLVESGGGLVQAGGSLRLSCAVSGLGAHRVGWFRRAPGKEREFVAAIGANGGNTNYLDSVKGRFTISRDNAKNTIYLQMNSLKPQDTAVYYCAARDIETAEYTYWGQGTQVTVSS | – | – | – | – | 0.0448 nM | 0.038 nM | Pseudo-neutralization (GFP) [6]: < 0.5 nM |
| Nb11 (VHH) VHH: HVQLVESGGGLVQAGGSLRLSCAVSGASAERVGWFRRAPGKEREFVAAIGANGGSTNYLDSVKGRFTISRDNAKNTVYLQMNSLKPQDTAVYYCAARNLETFDYTYWGRGTQVTVSS | – | – | – | 0.39 nM | 0.78 nM | 1 nM | – |
| Nb78 (VHH) VHH: QVQLVESGGGLVQAGGSLRLSCAISGASANRVGWFRRAPGKEREFVAAIGASGGMTNYLDSVKGRFTISRDNAKNTVYLQMNSLKPQDTAVYYCAARNIETAEYTYWGQGTQVTVSS | – | – | – | 0.61 nM | 0.766 nM | 0.509 nM | – |
| Nb17 (VHH) VHH: HVQLVESGGGLVQAGGSLRLSCAASGSIFSSNAMSWYRQAPGKQRELVASITSGGNADYADSVKGRFTISRDKNTVYPEMSSLKPADTAVYYCHAVGQEASAYAPRAYWGQGTQVTVSS [Nb17, listing 1 of 2 here] | 1.5 nM | 1.11 nM | ≤ 100 ng/mL | – | – | – | IC50, virus neutralization in vitro (assay not stated) [3]: ~0.025 µg/mL |
| Nb17 (VHH) VHH: HVQLVESGGGLVQAGGSLRLSCAASGSIFSSNAMSWYRQAPGKQRELVASITSGGNADYADSVKGRFTISRDKNTVYPEMSSLKPADTAVYYCHAVGQEASAYAPRAYWGQGTQVTVSS [Nb17, listing 2 of 2 here] | – | – | – | – | 1.5 nM | 1.1 nM | – |
